In patent US20200292537A1 (THEUNITEDSTATES OF AMERICA ASREPRESENTEDBYTHE SECRETARYOF …, published 2020):

T1: recombinant RON (cytoplasmic domain, Millipore) (UniProt Q04912 983-1400, limits assumed)
T1 construct: domain: cytoplasmic domain; also called recombinant cytoplasmic RON; cytoplasmic domain of RON
T1 sequence (looked up): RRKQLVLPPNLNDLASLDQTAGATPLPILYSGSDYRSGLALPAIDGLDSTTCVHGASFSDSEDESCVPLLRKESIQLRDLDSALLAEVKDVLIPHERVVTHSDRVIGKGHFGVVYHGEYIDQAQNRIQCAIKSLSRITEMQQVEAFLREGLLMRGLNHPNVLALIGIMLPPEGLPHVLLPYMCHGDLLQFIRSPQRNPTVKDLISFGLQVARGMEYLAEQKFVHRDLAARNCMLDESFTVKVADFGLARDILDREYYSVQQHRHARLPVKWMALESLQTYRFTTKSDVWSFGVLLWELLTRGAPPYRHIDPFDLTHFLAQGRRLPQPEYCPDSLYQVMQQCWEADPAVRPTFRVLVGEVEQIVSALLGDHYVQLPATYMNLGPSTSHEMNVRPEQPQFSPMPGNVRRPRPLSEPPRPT


Tests used:
[1] = biological target: recombinant RON protein (extracellular domain, R&D Systems) (human) (UniProt Q04912); test: full-length MET sandwich immunoassay; RON extracellular domain at 4 to 400 pM, 10-fold over rMET
[2] = biological target: T1, recombinant RON (cytoplasmic domain, …); test: Western blot of recombinant RON and preincubation of the antibody with RON
[3] = biological target: pY1235-MET (human MET phosphorylated at tyrosine 1235) (human) (UniProt P08581); test: interaction analysis with a BIAlite-Biosensor (Pharmacia), range of protein concentrations
Sequence of pY1235-MET (human MET phosphorylated at tyrosine 1235) (human) (P08581 25-1390 limits assumed): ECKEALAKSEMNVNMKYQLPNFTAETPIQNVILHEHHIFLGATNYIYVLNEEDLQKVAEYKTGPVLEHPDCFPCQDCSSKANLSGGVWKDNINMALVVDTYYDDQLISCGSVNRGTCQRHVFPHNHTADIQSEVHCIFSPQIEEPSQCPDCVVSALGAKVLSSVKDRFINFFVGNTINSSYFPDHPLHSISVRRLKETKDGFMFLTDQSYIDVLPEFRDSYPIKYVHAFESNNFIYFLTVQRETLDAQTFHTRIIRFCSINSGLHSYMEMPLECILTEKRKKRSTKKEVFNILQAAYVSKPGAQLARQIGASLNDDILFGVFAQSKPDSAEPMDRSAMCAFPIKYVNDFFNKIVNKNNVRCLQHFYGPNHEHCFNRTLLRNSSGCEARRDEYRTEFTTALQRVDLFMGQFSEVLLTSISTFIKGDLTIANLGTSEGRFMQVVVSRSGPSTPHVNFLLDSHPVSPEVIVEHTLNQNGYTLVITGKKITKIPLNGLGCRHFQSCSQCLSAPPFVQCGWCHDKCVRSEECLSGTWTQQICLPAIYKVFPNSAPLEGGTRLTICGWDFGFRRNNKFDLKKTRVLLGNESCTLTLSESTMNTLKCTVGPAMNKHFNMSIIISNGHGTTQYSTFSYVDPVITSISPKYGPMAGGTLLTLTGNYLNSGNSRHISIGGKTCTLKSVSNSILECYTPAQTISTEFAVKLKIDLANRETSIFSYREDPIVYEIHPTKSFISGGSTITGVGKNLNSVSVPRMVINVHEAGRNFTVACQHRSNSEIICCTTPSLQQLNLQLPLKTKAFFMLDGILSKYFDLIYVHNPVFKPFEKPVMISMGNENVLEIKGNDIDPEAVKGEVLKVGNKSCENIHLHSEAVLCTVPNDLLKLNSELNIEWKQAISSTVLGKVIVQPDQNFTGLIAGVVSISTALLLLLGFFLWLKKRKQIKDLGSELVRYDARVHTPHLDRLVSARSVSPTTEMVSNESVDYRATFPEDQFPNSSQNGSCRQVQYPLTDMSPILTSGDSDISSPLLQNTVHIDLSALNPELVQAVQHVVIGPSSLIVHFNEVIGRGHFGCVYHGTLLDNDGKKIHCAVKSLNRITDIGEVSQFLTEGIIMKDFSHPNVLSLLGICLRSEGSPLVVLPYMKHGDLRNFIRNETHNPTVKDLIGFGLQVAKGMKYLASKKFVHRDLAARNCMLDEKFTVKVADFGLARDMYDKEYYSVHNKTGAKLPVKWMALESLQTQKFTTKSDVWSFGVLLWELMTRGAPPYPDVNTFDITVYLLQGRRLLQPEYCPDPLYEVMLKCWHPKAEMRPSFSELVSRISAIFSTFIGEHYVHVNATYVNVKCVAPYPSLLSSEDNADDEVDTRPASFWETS

Sequence of recombinant RON protein (extracellular domain, R&D Systems) (human) (Q04912 25-957): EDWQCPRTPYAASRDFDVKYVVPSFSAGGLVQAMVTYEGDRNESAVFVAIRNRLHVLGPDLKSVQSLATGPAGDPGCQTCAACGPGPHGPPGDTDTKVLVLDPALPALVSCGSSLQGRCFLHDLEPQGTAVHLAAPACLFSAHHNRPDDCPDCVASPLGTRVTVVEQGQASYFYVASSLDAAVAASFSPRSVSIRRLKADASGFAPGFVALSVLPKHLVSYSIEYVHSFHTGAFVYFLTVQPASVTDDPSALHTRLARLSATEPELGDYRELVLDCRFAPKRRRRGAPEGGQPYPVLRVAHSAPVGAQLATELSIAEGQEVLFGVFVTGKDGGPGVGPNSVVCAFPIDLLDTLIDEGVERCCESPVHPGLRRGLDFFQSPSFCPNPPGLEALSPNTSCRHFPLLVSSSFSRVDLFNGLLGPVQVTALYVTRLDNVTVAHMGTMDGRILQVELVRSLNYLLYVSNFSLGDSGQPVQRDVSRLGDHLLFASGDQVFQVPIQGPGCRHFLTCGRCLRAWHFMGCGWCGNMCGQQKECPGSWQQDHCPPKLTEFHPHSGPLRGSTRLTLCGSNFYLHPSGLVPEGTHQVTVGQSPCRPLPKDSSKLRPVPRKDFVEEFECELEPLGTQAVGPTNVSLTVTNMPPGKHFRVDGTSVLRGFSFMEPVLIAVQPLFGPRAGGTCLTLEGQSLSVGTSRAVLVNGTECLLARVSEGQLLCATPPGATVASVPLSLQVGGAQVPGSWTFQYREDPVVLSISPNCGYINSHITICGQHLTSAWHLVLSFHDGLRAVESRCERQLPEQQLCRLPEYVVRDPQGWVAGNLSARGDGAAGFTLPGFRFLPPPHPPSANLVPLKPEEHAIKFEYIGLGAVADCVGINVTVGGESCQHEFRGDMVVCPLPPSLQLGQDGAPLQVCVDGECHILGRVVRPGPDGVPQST

| cross-reactivity [1] | binding result [2] | IC50 [3] | Molecule |
| --- | --- | --- | --- |
| < 5% | – | – | antigen affinity purified goat polyclonal anti-human MET extracellular domain antibody (catalog number AF276, R&D Systems) |
| – | no binding | 1.2 nM | rabbit monoclonal anti-pY1235-MET antibody, clone 23111 (antibody, V domains shown, Rabbit IgG from a hybridoma (Epitomics), later made as a recombinant protein in HEK293 cells; Biotin-conjugated when used as reporter in the sandwich immunoassay; also called antibody #23111; mAb #23111) VH: QSVEESGGRLVTPGTPLTLTCTVSGFSLSNYAMGWFRQAPGKGLEWIGIISRSGALWYANWANGRFTISKTSTTVDLKITSPTPEDTATYFCARTNYYDGYGGVDAVLTRFDFWGQGTLVTVSS VL: DVVMTQTPSSVEAAVGGTVTIKCQASQSIGGGLSWYQQKAGQPPKLLIYGASTLESGVPSRFKGSGSGTEFTLTISDLECADAATYYCQSNYGSDIRDYGHTFGGGTEVVVKG |
